# Values quoted from earlier work as cited in paper PMC6155283.
# “And” between values parts separate entries of the source, which are not always exact repeats. Identical values can stand only once.
# Target: GRα (Homo sapiens) (UniProt P04150)
substance,measurement,value
GRα (from UniProt P04150),Kd,7.4 µM and 3 µM
